Measurements from patent US20220362348A1, “LACTOFERRIN, DERIVED PEPTIDE THEREOF AND METHOD THEREOF FOR INHIBITING AND/OR ALLEVIATING LIPID SYNTHESIS” (RENORIGIN INNOVATION INSTITUTE CO., LTD., priority 2021, published 2022).

Test system: Human sebocytes
Assay: Neutral fat detection (Nile red staining, fluorescence intensity) in linoleic acid-induced sebocytes
Type: cell-based
Conditions: for fluorescence intensity (lipid content, Nile red): FIG. 1 D, two days, negative control about 1.0
Procedure: Human sebocytes (Cat. No. 36079-01, Celprogen, Torrance, Calif., USA) were cultured in Dulbecco's Modified Eagle Medium (DMEM): Nutrient Mixture F-12 (DMEM/F12) purchased from Thermo Fisher Scientific Limited (Barrington, Ill., USA), 10% fetal bovine serum (FBS) purchased from Gibco, Grand Island, N.Y., USA and penicillin/streptomycin (100 IU/50 […]), incubated at 37° C. in the 5% CO2 atmosphere.
Human sebocytes were implanted in 24- or 96-well plates. After 24 hours of culture, the cells were divided into a negative control group, a positive control group and an experimental group. […] The treated human sebocytes were cultured for two days. Human sebocytes were fixed with 4% formaldehyde at room temperature. After 60 minutes of fixation, the cells were washed with PBS and stained with Nile Red solution (1 μg/ml in PBS) at 37° C. for 15 minutes. Next, the cells were washed and observed under a fluorescent microscope. Fluorescence intensity is measured with fluorometer Spectra Max i3.

B1: lactoferrin (protein)
chain: APRKNVRWCTISQPEWFKCRRWQWRMKKLGAPSITCVRRAFALECIRAIAEKKADAVTLDGGMVFEAGRDPYKLRPVAAEIYGTKESPQTHYYAVAVVKKGSNFQLDQLQGRKSCHTGLGRSAGWIIPMGILRPYLSWTESLEPLQGAVAKFFSASCVPCIDRQAYPNLCQLCKGEGENQCACSSREPYFGYSGAFKCLQDGAGDVAFVKETTVFENLPEKADRDQYELLCLNNSRAPVDAFKECHLAQVPSHAVVARSVDGKEDLIWKLLSKAQEKFGKNKSRSFQLFGSPPGQRDLLFKDSALGFLRIPSKVDSALYLGSRYLTTLKNLRETAEEVKARYTRVVWCAVGPEEQKKCQQWSQQSGQNVTCATASTTDDCIVLVLKGEADALNLDGGYIYTAGKCGLVPVLAENRKSSKHSSLDCVLRPTEGYLAVAVVKKANEGLTWNSLKDKKSCHTAVDRTAGWNIPMGLIVNQTGSCAFDEFFSQSCAPGADPKSRLCALCAGDDQGLDKCVPNSKEKYYGYTGAFRCLAEDVGDVAFVKNDTVWENTNGESTADWAKNLNREDFRLLCLDGTRKPVTEAQSCHLAVAPNHAVVSRSDRAAHVKQVLLHQQALFGKNGKNCPDKFCLFKSETKNLLFNDNTECLAKLGGRPTYEEYLGTEYVTAIANLKKCSTSPLLEACAFLTR
modifications: bovine lactoferrin
With B1 the “lipid content reduced compared with positive control group (LA)” value (FIG. 1, 0.1 mM LA + 100 to 400 μg/mL lactoferrin) was 25%, the “fluorescence intensity (lipid content, Nile red)” value (“fluorescence intensity” for short) (0.1 mM LA + 100 μg/mL lactoferrin) was “about 1.5” and the “fluorescence intensity” value (0.1 mM LA + 200 μg/mL lactoferrin) was “about 1.5”. The “fluorescence intensity” value (0.1 mM LA + 400 μg/mL lactoferrin) was “about 1.5” and the “concentration dependence of inhibition of LA-induced lipid content” value (FIGS. 1-4, lactoferrin 100-400 μg/mL, peptides 25-100 μg/mL) was “dose-dependent manner”.
